In paper PMC10756753, “Redox-mediated activation of ATG3 promotes ATG8 lipidation and autophagy progression in Chlamydomonas reinhardtii” (Plant Physiology, 2023):

Legend:
[1] = target: Chlamydomonas reinhardtii ATG3, wild type (Chlamydomonas reinhardtii); assay: non-reducing SDS-PAGE; purified ATG3 (about 2.5-3 ug) in 50 mM Tris-HCl pH 7.5, 25 °C, untreated or treated with DTTred, GSH, DTTox, H2O2 or Cu2+; stopped with βME-free loading buffer, 5 min at 65 °C; 12% or 15% gels, Coomassie; monomer against disulfide-linked dimer
[2] = target: the molecule itself; assay: as above

“Chlamydomonas reinhardtii ATG3, wild type (enzyme)” was tested, and the stoichiometry N [1] was 2.

B1: Saccharomyces cerevisiae ATG3, wild type (enzyme, UniProt P40344 1-310, looked up)
chain: MIRSTLSSWREYLTPITHKSTFLTTGQITPEEFVQAGDYLCHMFPTWKWNEESSDISYRDFLPKNKQFLIIRKVPCDKRAEQCVEVEGPDVIMKGFAEDGDEDDVLEYIGSETEHVQSTPAGGTKDSSIDDIDELIQDMEIKEEDENDDTEEFNAKGGLAKDMAQERYYDLYIAYSTSYRVPKMYIVGFNSNGSPLSPEQMFEDISADYRTKTATIEKLPFYKNSVLSVSIHPCKHANVMKILLDKVRVVRQRRRKELQEEQELDGVGDWEDLQDDIDDSLRVDQYLIVFLKFITSVTPSIQHDYTMEGW
notes: ATG3 (E2-like enzyme of the ATG8 conjugation system), Saccharomyces cerevisiae; catalytic Cys234; also called ScATG3; ScATG3^WT
B1 was tested, and the “stoichiometry N” value [2] was 2.
